The text below walks through data of paper PMC11576762.

The test concerns the target human TPC1 with C-terminal mVenus (human) (UniProt Q9ULQ1). The test can be described thus: FRET or BRET; Two-hybrid FRET in live HEK293 cells; donor mTq2 constructs (0.7 µg DNA), acceptor mVenus constructs (1.5 µg DNA); confocal imaging, regions of interest around mVenus-positive lysosomes; maximum FRET efficiency from two-hybrid curves; no apilimod. For orientation: BRET reads energy transfer from a luciferase to a nearby fluorophore.

Substance “mTq2-Rab5 (from UniProt P20339 1-215) (natural protein)” gave an FRET efficiency of 29%.
